The supplement of paper PMC10201428
± gives the standard deviation of the averaged measurements.

Key:
[1] = test system: VchCAST RNA-guided transposition machinery (E. coli BL21(DE3) host, lacZ target); assay: relative integration efficiency (T-LR orientation) vs wild-type transposon end (log2 (normalized fold change)); transposon end mutated: right end (5 bp flank + 75 bp right end); higher = more efficient transposition
Method in brief: (§1)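 In E. coli BL21(DE3), a T7-driven effector plasmid was paired with a pUC57 mini-transposon donor containing 1549 left-end or 1849 right-end barcoded transposon variants. Cells grew on plates with 0.1 mM IPTG at 37°C for 18 h. Relative integration efficiency was derived from Illumina reads of genomic integration junctions against input plasmids, as a log-transformed output/input barcode fold change normalised to reference barcodes.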

[2] = test system: VchCAST RNA-guided transposition machinery (E. coli BL21(DE3) host, lacZ target); assay: relative integration efficiency (T-RL orientation) vs wild-type transposon end (log2 (normalized fold change)); transposon end mutated: right end (5 bp flank + 75 bp right end); higher = more efficient transposition
Method in brief: as §1

## ACATTTGTTGATACAACCATAAAATGATAATTACACCCATAAATTGATAATTCGACACAAACGCCCGGTCGCGGTAAGAGGATCATAGTCAGACCAACATTGCTACGACCCGTATTCGCACCGACAC
[1]
  relative integration efficiency (log2): 3.748 ± 0.033
[2]
  relative integration efficiency (log2): 0.636 ± 0.17

## ACATTTGTTGATACAACCATAAAATGATAATTACACCCATAAATTGATAATTCGACCACCCATAAATTGATATTGCCTCTGATCATAGTCAGACCAACATTGCTACGACCCGTATTCGCACCGACAC
[1]
  relative integration efficiency (log2): 0.317 ± 0.33
[2]
  relative integration efficiency (log2): -0.541 ± 0.14

## ACATTTGTTGATACAACCATAAAATGATAATTACACCCATAAATTGATAATTCGCACACCCATAAATTGATATTGCCTCTGATCATAGTCAGACCAACATTGCTACGACCCGTATTCGCACCGACAC
[1]
  relative integration efficiency (log2): 0.189 ± 0.39
[2]
  relative integration efficiency (log2): -0.551 ± 0.065

## ACATTTGTTGATACAACCATAAAATGATAATTACACCCATAAATTGATAATTGTGACACCGAATTTAACTATAACGCTCTGATCATAGTCAGACCAACATTGCTACGACCCGTATTCGCACCGACAC
[1]
  relative integration efficiency (log2): 2.87 ± 0.14
[2]
  relative integration efficiency (log2): -0.766 ± 0.25

## ACATTTGTTGATACAACCATAAAATGATAATTACACCCATAAATTGATAATTTACACACCCATAAATTGATATTGCCTCTGATCATAGTCAGACCAACATTGCTACGACCCGTATTCGCACCGACAC
[1]
  relative integration efficiency (log2): 0.268 ± 0.15
[2]
  relative integration efficiency (log2): -0.0701 ± 0.25

## ACATTTGTTGATACAACCATAAAATGATAATTACACCCATAAATTGATAATTTAGTCACCCATAAATTGATATTGCCTCTGATCATAGTCAGACCAACATTGCTACGACCCGTATTCGCACCGACAC
[1]
  relative integration efficiency (log2): 0.247 ± 0.11
[2]
  relative integration efficiency (log2): -0.447 ± 0.07

## ACATTTGTTGATACAACCATAAAATGATAATTACACCCATAAATTGATAATTTCACACCCATAAATTGATATTGCCTCTGATCATAGTCAGACCAACATTGCTACGACCCGTATTCGCACCGACACT
[1]
  relative integration efficiency (log2): 0.745 ± 0.092
[2]
  relative integration efficiency (log2): -0.767 ± 0.17

## ACATTTGTTGATACAACCATAAAATGATAATTACACCCATAAATTGATACGGCGACACAAACGCCCGGTCGCGGTAAGAGGATCATAGTCAGACCAACATTGCTACGACCCGTATTCGCACCGACAC
[1]
  relative integration efficiency (log2): 2.25 ± 0.24
[2]
  relative integration efficiency (log2): -0.726 ± 0.13

## ACATTTGTTGATACAACCATAAAATGATAATTACACCCATAAATTGATACGGCTCACACCCATAAATTGATATTGCCTCTGATCATAGTCAGACCAACATTGCTACGACCCGTATTCGCACCGACAC
[1]
  relative integration efficiency (log2): 0.173 ± 0.15
[2]
  relative integration efficiency (log2): -0.622 ± 0.074

## ACATTTGTTGATACAACCATAAAATGATAATTACACCCATAAATTGATACGTATCACACCCATAAATTGATATTGCCTCTGATCATAGTCAGACCAACATTGCTACGACCCGTATTCGCACCGACAC
[1]
  relative integration efficiency (log2): -0.44 ± 0.48
[2]
  relative integration efficiency (log2): -0.704 ± 0.012

## ACATTTGTTGATACAACCATAAAATGATAATTACACCCATAAATTGATATAATTCACACCCATAAATTGATATTGCCTCTGATCATAGTCAGACCAACATTGCTACGACCCGTATTCGCACCGACAC
[1]
  relative integration efficiency (log2): 0.18 ± 0.19
[2]
  relative integration efficiency (log2): -0.233 ± 0.14

## ACATTTGTTGATACAACCATAAAATGATAATTACACCCATAAATTGATATATATCACACCCATAAATTGATATTGCCTCTGATCATAGTCAGACCAACATTGCTACGACCCGTATTCGCACCGACAC
[1]
  relative integration efficiency (log2): 4.91e-05 ± 0.14
[2]
  relative integration efficiency (log2): -0.313 ± 0.16

## ACATTTGTTGATACAACCATAAAATGATAATTACACCCATAAATTGATATCACACCCATAAATTGATATTGCCTCTGATCATAGTCAGACCAACATTGCTACGACCCGTATTCGCACCGACACTGAC
[1]
  relative integration efficiency (log2): 2.45 ± 0.18
[2]
  relative integration efficiency (log2): -1.06 ± 0.31

## ACATTTGTTGATACAACCATAAAATGATAATTACACCCATAAATTGATATTGCTCACAACCATAAAATGATAATTACTCTGATCATAGTCAGACCAACATTGCTACGACCCGTATTCGCACCGACAC
[1]
  relative integration efficiency (log2): 0.106 ± 0.059
[2]
  relative integration efficiency (log2): -0.532 ± 0.27

## ACATTTGTTGATACAACCATAAAATGATAATTACACCCATAAATTGATATTGCTCACAACCATAAAGTGATATTTACTCTGATCATAGTCAGACCAACATTGCTACGACCCGTATTCGCACCGACAC
[1]
  relative integration efficiency (log2): 0.269 ± 0.25
[2]
  relative integration efficiency (log2): -0.424 ± 0.093

## ACATTTGTTGATACAACCATAAAATGATAATTACACCCATAAATTGATATTGCTCACAACCATAAGTTGATATTTTCTCTGATCATAGTCAGACCAACATTGCTACGACCCGTATTCGCACCGACAC
[1]
  relative integration efficiency (log2): 0.538 ± 0.11
[2]
  relative integration efficiency (log2): -0.473 ± 0.17

## ACATTTGTTGATACAACCATAAAATGATAATTACACCCATAAATTGATATTGCTCACAACCATATATTGATATCTCCTCTGATCATAGTCAGACCAACATTGCTACGACCCGTATTCGCACCGACAC
[1]
  relative integration efficiency (log2): 0.579 ± 0.21
[2]
  relative integration efficiency (log2): -0.74 ± 0.17

## ACATTTGTTGATACAACCATAAAATGATAATTACACCCATAAATTGATATTGCTCACACCCATAAATTGATAATTACTCTGATCATAGTCAGACCAACATTGCTACGACCCGTATTCGCACCGACAC
[1]
  relative integration efficiency (log2): 0.634 ± 0.033
[2]
  relative integration efficiency (log2): -0.432 ± 0.2

## ACATTTGTTGATACAACCATAAAATGATAATTACACCCATAAATTGATATTGCTCACACCCATAAATTGATATTGCCTCTGATCATAGTCAGACCAACATTGCTACGACCCGTATTCGCACCGACAC
[1]
  relative integration efficiency (log2): 0.786 ± 0.29
[2]
  relative integration efficiency (log2): -0.394 ± 0.045

## ACATTTGTTGATACAACCATAAAATGATAATTACACCCATAAATTGATATTGCTCAGTGGGTATTTAACTATAACGCTCTGATCATAGTCAGACCAACATTGCTACGACCCGTATTCGCACCGACAC
[1]
  relative integration efficiency (log2): 2.58 ± 0.34
[2]
  relative integration efficiency (log2): -0.891 ± 0.23

## ACATTTGTTGATACAACCATAAAATGATAATTACACCCATAAATTGATCATTATCACCCCCAATTTAACTATAACGCTCTGATCATAGTCAGACCAACATTGCTACGACCCGTATTCGCACCGACAC
[1]
  relative integration efficiency (log2): 1.9 ± 0.065
[2]
  relative integration efficiency (log2): -1.35 ± 0.22

## ACATTTGTTGATACAACCATAAAATGATAATTACACCCATAAATTGATCCGGATCACACCCATAAATTGATATTGCCTCTGATCATAGTCAGACCAACATTGCTACGACCCGTATTCGCACCGACAC
[1]
  relative integration efficiency (log2): -0.388 ± 0.14
[2]
  relative integration efficiency (log2): -0.929 ± 0.16

## ACATTTGTTGATACAACCATAAAATGATAATTACACCCATAAATTGATCCGGCGACACAAACGCCCGGTCGCGGTAAGAGGATCATAGTCAGACCAACATTGCTACGACCCGTATTCGCACCGACAC
[1]
  relative integration efficiency (log2): 2.09 ± 0.1
[2]
  relative integration efficiency (log2): -0.942 ± 0.11

## ACATTTGTTGATACAACCATAAAATGATAATTACACCCATAAATTGATCCTTATCACACCCATAAATTGATATTGCCTCTGATCATAGTCAGACCAACATTGCTACGACCCGTATTCGCACCGACAC
[1]
  relative integration efficiency (log2): -0.418 ± 0.47
[2]
  relative integration efficiency (log2): -0.973 ± 0.3

## ACATTTGTTGATACAACCATAAAATGATAATTACACCCATAAATTGATTCACACCCATAAATTGATATTGCCTCTGATCATAGTCAGACCAACATTGCTACGACCCGTATTCGCACCGACACTGACT
[1]
  relative integration efficiency (log2): 2.09 ± 0.12
[2]
  relative integration efficiency (log2): -1.49 ± 0.24

## ACATTTGTTGATACAACCATAAAATGATAATTACACCCATAAATTGATTTAAATCACACCCATAAATTGATATTGCCTCTGATCATAGTCAGACCAACATTGCTACGACCCGTATTCGCACCGACAC
[1]
  relative integration efficiency (log2): -0.261 ± 0.15
[2]
  relative integration efficiency (log2): -0.801 ± 0.11

## ACATTTGTTGATACAACCATAAAATGATAATTACACCCATAAATTGATTTTTATCACACCCATAAATTGATATTGCCTCTGATCATAGTCAGACCAACATTGCTACGACCCGTATTCGCACCGACAC
[1]
  relative integration efficiency (log2): 0.0005 ± 0.35
[2]
  relative integration efficiency (log2): -0.629 ± 0.28

## ACATTTGTTGATACAACCATAAAATGATAATTACACCCATAAATTGCGAATTATCACACCCATAAATTGATATTGCCTCTGATCATAGTCAGACCAACATTGCTACGACCCGTATTCGCACCGACAC
[1]
  relative integration efficiency (log2): -0.682 ± 0.11
[2]
  relative integration efficiency (log2): -0.3539 ± 0.00067

## ACATTTGTTGATACAACCATAAAATGATAATTACACCCATAAATTGCGCCGGCGACACAAACGCCCGGTCGCGGTAAGAGGATCATAGTCAGACCAACATTGCTACGACCCGTATTCGCACCGACAC
[1]
  relative integration efficiency (log2): 1.62 ± 0.053
[2]
  relative integration efficiency (log2): -1.38 ± 0.23

## ACATTTGTTGATACAACCATAAAATGATAATTACACCCATAAATTGCGCCTTATCACACCCATAAATTGATATTGCCTCTGATCATAGTCAGACCAACATTGCTACGACCCGTATTCGCACCGACAC
[1]
  relative integration efficiency (log2): -0.939 ± 0.25
[2]
  relative integration efficiency (log2): -1.39 ± 0.2

## ACATTTGTTGATACAACCATAAAATGATAATTACACCCATAAATTGTAAATTATCACACCCATAAATTGATATTGCCTCTGATCATAGTCAGACCAACATTGCTACGACCCGTATTCGCACCGACAC
[1]
  relative integration efficiency (log2): -0.553 ± 0.24
[2]
  relative integration efficiency (log2): -0.602 ± 0.1

## ACATTTGTTGATACAACCATAAAATGATAATTACACCCATAAATTGTATTTTATCACACCCATAAATTGATATTGCCTCTGATCATAGTCAGACCAACATTGCTACGACCCGTATTCGCACCGACAC
[1]
  relative integration efficiency (log2): -0.327 ± 0.39
[2]
  relative integration efficiency (log2): -0.924 ± 0.063

## ACATTTGTTGATACAACCATAAAATGATAATTACACCCATAAATTTATTATTATCACACCCAATTTAACTATAACGCTCTGATCATAGTCAGACCAACATTGCTACGACCCGTATTCGCACCGACAC
[1]
  relative integration efficiency (log2): 1.56 ± 0.26
[2]
  relative integration efficiency (log2): -2.3 ± 0.59

## ACATTTGTTGATACAACCATAAAATGATAATTACACCCATAAATTTCGCATTATCACACCCATAAATTGATATTGCCTCTGATCATAGTCAGACCAACATTGCTACGACCCGTATTCGCACCGACAC
[1]
  relative integration efficiency (log2): -1.39 ± 0.6
[2]
  relative integration efficiency (log2): -1.91 ± 0.14

## ACATTTGTTGATACAACCATAAAATGATAATTACACCCATAAATTTCGCCGGCGACACAAACGCCCGGTCGCGGTAAGAGGATCATAGTCAGACCAACATTGCTACGACCCGTATTCGCACCGACAC
[1]
  relative integration efficiency (log2): 0.788 ± 0.1
[2]
  relative integration efficiency (log2): -2.05 ± 0.15
